The record followed here is patent US20160009768A1.

The target in the experiment is elongation factor-2 (EF-2) (rabbit) (UniProt P55823). As to the kind of experiment: cell-based or functional assay.

“wild type DT382 (from UniProt P00587 26-406) (enzyme)” registered an inhibition of transcription/translation of T7-luc plasmid in IVTT of 90%.

In the case of “DT382 (G53E): Null construct (from UniProt P00587 26-406) (enzyme)”, the inhibition of transcription/translation of T7-luc plasmid in IVTT was found to be 20%.
